Experiment [1] deals with T1, MBP-tagged FRLα C terminus (residues 612–1,094) (UniProt Q9JL26-1 612-1094).
T1 sequence: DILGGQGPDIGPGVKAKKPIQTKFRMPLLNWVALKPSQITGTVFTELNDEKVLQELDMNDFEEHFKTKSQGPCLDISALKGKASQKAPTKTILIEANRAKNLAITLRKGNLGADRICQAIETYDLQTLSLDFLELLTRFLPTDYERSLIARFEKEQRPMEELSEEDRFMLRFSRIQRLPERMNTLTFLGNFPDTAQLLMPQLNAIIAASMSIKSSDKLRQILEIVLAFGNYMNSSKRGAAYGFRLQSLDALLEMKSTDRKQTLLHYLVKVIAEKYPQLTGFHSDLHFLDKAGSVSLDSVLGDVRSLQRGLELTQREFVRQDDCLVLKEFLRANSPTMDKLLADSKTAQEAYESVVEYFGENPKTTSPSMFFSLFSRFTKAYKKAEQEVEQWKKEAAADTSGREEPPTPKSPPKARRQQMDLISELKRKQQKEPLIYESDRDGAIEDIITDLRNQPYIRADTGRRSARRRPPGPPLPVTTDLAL
Nature of the experiment: pull-down.

Experiment [2] deals with T2, FRLα C terminus (residues 612–1,094), untagged (UniProt Q9JL26-1 612-1094).
T2 sequence: T1 sequence
Nature of the experiment: pull-down.

Numbering of substitutions follows the chain as printed. In names and notes the source's numbering stands.

B1: GST-tagged FRLα N terminus (residues 1–450) (domain or fragment)
chain: MGNAAGSAEQPAGPTASPPKQPAVPKQPMPAAGELEERFTRVLNCMNLPPDKVQLLSQYDNEKKWELICDQERFQVKNPPAAYIQKLKSYLDTGGVSRKVASDWMSNLGFKRRVQESTQVLRELETSLRTNHIGWVQEFLNEENRGLDVLLEYLAFAQCSVAYDMESTDSVASGAEKSKPLDQSVEDLSKAPPSSVPKSRLTIKLTPAHSRKALRNSRIVSQKDDVHVCIMCLRAIMNYQSGFSLVMNHPACVNEIALSLNNKSPRTKALVLELLAAVCLVRGGHDIILAAFDNFKEVCGEQHRFEKLMEYFRHEDSNIDFMVACMQFINIVVHSVENMNFRVFLQYEFTHLGLDLYLERLRLTESDKLQVQIQAYLDNVFDVGTLLEETETKNAVLEHMEELQEQVATLTERLRDTENDSMAKIAELEKQLSQARKELETLRERFSEST
For B1, the binding result in experiment [1] and in experiment [2] was “binds” throughout.

B2: GST–N terminus T126D of FRLα (residues 1–450) (domain or fragment)
chain: B1 chain with T126D
Turning to B2, the binding result in experiment [2] is on record as “binds”.

The values are drawn from PMC2064313 (The Journal of Cell Biology, 2006).
